Laboratory results from the nanobody polyreactivity screen of Harvey et al. (2022).

Experiment: yeast display, Sf9 membrane polyspecificity reagent, FACS + sequencing; frameworks hold sequencing errors
Method in brief: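 Galactose induction of a Saccharomyces cerevisiae BJ5465 synthetic nanobody display library ran 36–48 hours. The cells were then stained for 1 hour at 4 °C with 10% biotinylated, detergent-solubilized Sf9 membrane reagent, pulled down on streptavidin microbeads and FACS-sorted into low and high (top ~1%) gates on expression and reagent-binding fluorescence. Labels for polyreactivity follow the gate of origin.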

Row | Sequence | polyreactivity (PSR sort gate)
1 | QVQLVESGGGLVQAGGSLRLSCAASGYIFQYYPMGWYRQAPGKERELVAAITSGTRTYYADSVKGRFTISRDNAKNTVYLQMNSLKPDDTAGYYCAASPDYSRYWVYAPTRRLGYWGQGTQVTVSS | high polyreactivity
2 | QVQLVESGGGLVQAGGSLRLSCAASGYIFRSNAMGWYRQAPGKERELVAAISGGGRTNYADSVKGRFTISRDNAKNTVYLQMNSLKPEDTAVYYCAAGGYYQRTRGYWGQATQVTVSS | high polyreactivity
3 | QVQLVESGGGLVQAGGSLRLSCAASGYIFSKYALGWYRQAPGKERELVASITGRGSRTYYADSVKGRFTISRDNAKNTVYLQMNSLKAEDTAVYYCAADWYGQKTSNRWYFRPGYVYWGQGTQVTVSS | high polyreactivity
4 | QVQLVESGGGLVQAGGSLRLSCAASGYIFSLYAMGWYRQAPGKERELLADITTSAGSTYYADSVKGRFTISRDNAKNTVYLQMISLKPEDTAVYYCAAAVYGHSYYDYDYWGLGTQVTVSS | low polyreactivity
5 | QVQLVESGGGLVQAGGSLRLSCAASGYIFSLYGMGWYRQAPGKERELVAAITGSGGGTYADSVKGRFTISRDNAQNTVYLQMKSLKPEDTAVYYCAAGGYRRRFWPIYDYWGQGTQVTVSS | low polyreactivity
6 | QVQLVESGGGLVQAGGSLRLSCAASGYIFSRNDRGWYRQAPGKERELVARITGSAGSTYYADSVKGRFTISRDNAKNTVYLQMNSLKPEDTAVYYCARRWYTWRKNKYCRMDYWGQGTQVTVSS | low polyreactivity
7 | QVQLVESGGGLVQAGGSLRLSCAASGYIFSSYAMGWYRQAPGKERELVAAISWTGGTYYADSVKGRFTISRDNAKNTVYLQMNSLNPEDTAVYYCAVRYKRKGSGYRTNAYDYWGQGTQVTVSS | high polyreactivity
8 | QVQLVESGGGLVQAGGSLRLSCAASGYIFSTYDMGWYRQAPGKERELVATISSSGGSTYYADSVKGRFTISRDIAKNTVYLQMNSLKPEDTAVYYCAADLYLYQYRYEYDYWGQGTQVTVSS | high polyreactivity
9 | QVQLVESGGGLVQAGGSLRLSCAASGYIFSTYTMGWYRQAPGKERELVATITVSGGSTYYADSVKGRFTISRDNAKNTVYLQMNSLKPEDTAVYYCAALRYTFAGRFDYWGQGTQVTVSS | high polyreactivity
10 | QVQLVESGGGLVQAGGSLRLSCAASGYIFSYYAMGWYRQAPGKERELVAAITSSGGRTYYADSVKGRFTISRDNAKNTVYLQMNSLKPEDTAVYYCNRDYSSYDTEDYWGQGTQVTVSS | high polyreactivity
11 | QVQLVESGGGLVQAGGSLRLSCAASGYIFTDKVMGWYIQAPGKERELVAAITYSAASTYYADSVKGRFTISRDNAKNTVYLQMNSLKPEDTAVYYCATEYYIGVNYRGDYWGQGTQVTVSS | low polyreactivity
12 | QVQLVESGGGLVQAGGSLRLSCAASGYIFTPYAMGWYRQAPGKERELVAAITGSGSSTYYADSVKGRFTISRDNAKNTVYLQMNSLKPEDTAVYYCAADSYGFYGYYYYELEYWGQGTQVTVSS | low polyreactivity
13 | QVQLVESGGGLVQAGGSLRLSCAASGYIFTRNAMGWYRQAPGKERELVATISSRGGRTYYADSVKGRFTISRDNAKNTVYLQMNSLKPEDTAVYYCAATPWYRTRTYDYWGQGTQVTVSS | high polyreactivity
14 | QVQLVESGGGLVQAGGSLRLSCAASGYIFVHYVMGWYRQAPGKERELVAAISSSGDRTYYADSVKGRFTISRDNAKNTVYLQMNSMKPEDTAVYYCAARYSDTSTNRYYYWGQGTQVTVSS | high polyreactivity
15 | QVQLVESGGGLVQAGGSLRLSCAASGYIFVRNAMGWYRQAPGKERELVAAISGSGGSTYYADSVKGRFTISRDNAKNTVYLQMNSLKPEDTAVYYCAADYATVTWRGIAYDYWGQGTQVTVSS | low polyreactivity
16 | QVQLVESGGGLVQAGGSLRLSCAASGYIFYDNAMGWYRQAPGKDREFVSTYYADSVKGRFTISRDNAKNTVYLQMNSLKPEDTAVYYCAAVYSHEGYCWGQGTQVTVSS | low polyreactivity
17 | QVQLVESGGGLVQAGGSLRLSCAASGYIFYENAMGWYRQAPGKERELVAAIRFTGGSTYYADSVKGRFTISRDNAKNTVYLQMNSLKPEDTAVYYCSKSYPDTQRYQYPRGWELDYWGQGTQVTVSS | low polyreactivity
18 | QVQLVESGGGLVQAGGSLRLSCAASGYIFYEYAMGWYRQAPGKERELVAAISRRGGRTYYADSVKGRFTISRDNAKNTVYLQMKSLKPEDTAVYYCATRVIYGHSVGYWGQCTQVTVSS | high polyreactivity
19 | QVQLVESGGGLVQAGGSLRLSCAASGYIFYFNAMAWYRQAPGKEMELVAVISDRDDSTYYADSVKGRFTISRDNAKNTVYLHMNSLKPEDTAVYYCAADGDTYYNYYHWGQGTQVTVSS | low polyreactivity
20 | QVQLVESGGGLVQAGGSLRLSCAASGYIFYRNAMGWYRQAPVKEREFVAAISSSGVSTYYADSVKGRFTISRDNAKNTVYLQMNSLKPEDTAVYYCAASYLTWKRRYDYWGQGTQVTVSS | high polyreactivity
21 | QVQLVESGGGLVQAGGSLRLSCAASGYIIWDYAMGWYRQAPGKEREFVATISRSVGSTYYADSVKGRFTISRDNAKNTVYLQMNSLKPEDTAVYYCAAVTWGEGFDYWGQGTQVTVSS | low polyreactivity
22 | QVQLVESGGGLVQAGGSLRLSCAASGYILDRNAMGWYIQAPGKEREFVAVISWGGTRTYYADSVKGRFTISRDNAKNTVYLQMNSLKPEDTAVYYCARYPYYYGYAGRYDYWGQGTQVTVSS | high polyreactivity

Row | Sequence | polyreactivity (PSR sort gate)
23 | QVQLVESGGGLVQAGGSLRLSCAASGYILPHNAMGWSRQAPGKDGEMVAAITSSGGSTYYADSVKGRVTISRDNAKNTVYLQMNSLKPEDTAVYYCNTDQYSPYEYSSFDSWGQGTQVTVSS | low polyreactivity
24 | QVQLVESGGGLVQAGGSLRLSCAASGYILYANAMGWYRQAPGKERELVASITFGDDSTYYADSVKGRFTISRDNAKNTVYLQMNSLKPEDTAVYYCNADHKVEVEDDYWGQGTQVTVSS | low polyreactivity
25 | QVQLVESGGGLVQAGGSLRLSCAASGYILYGNTMGWYRQAAGKERELVAVISGGGSTNYADSVKGRFTISRDNAKNTVYLQMNSLKPQDTAVYYCAVKTNQAGYDYWGQGTQVTVSS | low polyreactivity
26 | QVQLVESGGGLVQAGGSLRLSCAASGYISNAMGWYRQAPGKERELVAAISRSGGSTYYADSVKGRFTISRDNAKNTVYLQMNSLKPEDTAVYYCAGDSTYHARRLDYWGQGTQVTVSS | low polyreactivity
27 | QVQLVESGGGLVQAGGSLRLSCAASGYISWAYVMGWYIQAPGKERELVAAISSGTSTYYADSVKGRFTISRDNAKNTVYLQMNSLKPEDTAVYYCAAYYYSYPTNGGYGYWGQGTQVTVSS | low polyreactivity
28 | QVQLVESGGGLVQAGGSLRLSCAASGYIVLVYAMGWYRQAPGKERELFASITRGTRTYYADSVKGRFTISRDNAKNTVYLQMNSLKPEDTAVYYCAAEHSGYPVAFYITGYGYDYWGQGTQVTVSS | low polyreactivity
29 | QVQLVESGGGLVQAGGSLRLSCAASGYIYAYYAMGWYRQAPGKERELVAAITGRGDTTYYADSVKGRFTISRDNAKNTVYLQMNSLIPEDTAVYYCNAEKPTYYYVPGKYDVDYWGQGTQVTVSS | low polyreactivity
30 | QVQLVESGGGLVQAGGSLRLSCAASGYIYDYNAMGWYRQAPGKERELVAAITFRDGSTYADSVKGRFTISRDNGKNTVYLQMNSLKPEDTAVYYCNRRSQVHSHSKHDDWGQGTQVTVSS | low polyreactivity
31 | QVQLVESGGGLVQAGGSLRLSCAASGYIYGVYAMGWYRQAPGKERELVAAISYGVGSTYYADSVKGRFTISRDNAKNTVYLQMNSLKPEDTAVYYCAAEDTQVRWSPVRPLEYYCGQGTQVTVSS | low polyreactivity
32 | QVQLVESGGGLVQAGGSLRLSCAASGYPFGKYAMGWYRQAPGKERELVASIRSGGSTNYADSVKGRFTISRDNAKNTVYVQMNCLKPEDTAVYYCNTRYRYQYGYDYWWQGTQVTVSS | high polyreactivity
33 | QVQLVESGGGLVQAGGSLRLSCAASGYSFYKYAMGWYRQAPGKERELVAAISYSGGSTYYADSVKGRFTISRDNAKNTVYLQMNSLKPEDTAVYYCAAVGATKGLRYGYWGQGTQVTVSS | low polyreactivity
34 | QVQLVESGGGLVQAGGSLRLSCAASGYTFAGNAMGWYRQAPGKERELVAVITYSGGSTYYADSVKGRFTISRDNAKNTVYSQMNSLKPEDTAVYYCNAVRDRYASDYWGQGTQVTVSS | low polyreactivity
35 | QVQLVESGGGLVQAGGSLRLSCAASGYTFAPYVMGWYRQAPGKERELVARISNNGGSKYYADSVKGRFTISRDNAKNTFYLQMNSLKPEDTAVYYCAADVGLIYFRYYYCGQGTQVTVSS | low polyreactivity
36 | QVQLVESGGGLVQAGGSLRLSCAASGYTFARYAMGWYRQATGKERELVAANTSGDRTNYADSVKGRFTISRDNAKNTVYLQMNSLKPEDTAVYYCNATLYSYDASDYWGQGTQVTVSS | low polyreactivity
37 | QVQLVESGGGLVQAGGSLRLSCAASGYTFASYTMGLYRQAPGKERELVATISRGGGRTYYADSVKGRFTISRDNAKNTVYLQMNSLKPEDTAVYYCATRLYPHQYYYWGQGTQVTVSS | high polyreactivity
38 | QVQLVESGGGLVQAGGSLRLSCAASGYTFDLYAMGWYRQAPGKERELVADISSGGSTNYADSVKGRFTISRDNAKNTVYLQMNSLKPEDTAVYYCAVDADRSLFGQYYVSEYGGGYWGQGTQVTVSS | low polyreactivity
39 | QVQLVESGGGLVQAGGSLRLSCAASGYTFDYNAMGSYRQAPGKERELVADITGSGASTSYADSVKGRFTISRDYAKNTVYLQMNSLKPEDTAVYYCNADDSYFYELYGYWGQGTQVTVSS | low polyreactivity
40 | QVQLVESGGGLVQAGGSLRLSCAASGYTFESYTMGWYRQGPGKERDFVAVISSSDTSTSYADSVKGRFTISRDNAKNTVYLQINSLKAEDTAVYYCAAYSSPYYITYYWYNYDYWGQVTQVTVSS | low polyreactivity
41 | QVQLVESGGGLVQAGGSLRLSCAASGYTFFFNVMGWYRQAPGKERELVAAISYSGGSTNYADSVKGRFTISRDNAKNTVYLQINSLKPEDTAVYYCNARTVSRNGYQDDYWGQGTQVTVSS | low polyreactivity
42 | QVQLVESGGGLVQAGGSLRLSCAASGYTFGFYALGWYRQAPGKERELVAAITVSGGSTYYADSVKGRFTISRDNAKNTVYLQMNSLKPEDTAVYYCAAEVWFYSTFLYDYWGQGTQVTVSS | high polyreactivity
43 | QVQLVESGGGLVQAGGSLRLSCAASGYTFGNYAMGWYRQAPGKERELVAGISWSGGSTYYADSVKGRFTISRDNAKNTVYLQMNSLKPEDTAVYYCATRVQGYHNGWYDYWGQGTQVTVSS | high polyreactivity
